Among the data in paper PMC7194074, “A Trichome-Specific, Plastid-Localized Tanacetum cinerariifolium Nudix Protein Hydrolyzes the Natural Pyrethrin Pesticide Biosynthetic Intermediate trans-Chrysanthemyl Diphosphate” (Frontiers in Plant Science, 2020) are Km values, retold here.

For orientation: Km means the substrate concentration at which the rate is half of its maximum.

This data set relates to CC(C)=C[C@@H]1[C@@H](COP(=O)(O)OP(=O)(O)O)C1(C)C. As to the kind of experiment: purified protein. The following applies: 100 mM Tris pH 7.5, 5 mM MgCl2, CPP 0.1 to 5 μM, 5 min, 1 μM enzyme stated for the general reactions.

Regarding TcNudix1 (Tanacetum cinerariifolium), the Km came out at 0.137 ± 0.05 µM.
